For the experiment, the target named is T1, bovine serum albumin (bovine, UniProt P02769 25-607).
T1 construct: Unconjugated carrier protein used as a control antigen; also called BSA
In words: ELISA of soluble HC-V-myc supernatant on immobilised antigens, anti-myc detection. The procedure: Commercially available strains such as TOPIOF (stratagene) and HB2151 (Pharmacia) may alternatively be used. Two transformants of each clone were pre-grown in 10 ml 2TY/Ampicillin/Glucose. After 3-4 hours of growth at 37° C. (OD₆₀₀=0.5), the cells were pelleted by centrifugation and resuspended in 5 ml 2TY/Ampicillin/IPTG (0.1 mM). After 24 hours of incubation at 25° C. the cultures were centrifuged, and the supernatants were analysed for the production of antigen binding activity in essential the same way as described in Example 3. In this case, however, the presence of specifically bound HC-V fragments was detected by incubation with monoclonal anti-myc antibodies, followed by incubation with poly-clonal rabbit-anti-mouse conjugate with alkaline phosphatase.
Another three clones (nR3, nR4 and nR8) were specific for RR6-BSA, but the signals observed were very low. […] This was confirmed by analysis of the supernatants on Western blots (FIG. 3B). The remaining 3 clones (nR6, nR9 and nR10) gave significant signals over background on RR6-BSA, BSA and E3G-OVA (FIG. 3A). It would appear that these three ‘sticky’ clones bind to immobilised proteins in general.
On the technique in general: ELISA stands for enzyme-linked immunosorbent assay.

T1 sequence (P02769 25-607 limits assumed): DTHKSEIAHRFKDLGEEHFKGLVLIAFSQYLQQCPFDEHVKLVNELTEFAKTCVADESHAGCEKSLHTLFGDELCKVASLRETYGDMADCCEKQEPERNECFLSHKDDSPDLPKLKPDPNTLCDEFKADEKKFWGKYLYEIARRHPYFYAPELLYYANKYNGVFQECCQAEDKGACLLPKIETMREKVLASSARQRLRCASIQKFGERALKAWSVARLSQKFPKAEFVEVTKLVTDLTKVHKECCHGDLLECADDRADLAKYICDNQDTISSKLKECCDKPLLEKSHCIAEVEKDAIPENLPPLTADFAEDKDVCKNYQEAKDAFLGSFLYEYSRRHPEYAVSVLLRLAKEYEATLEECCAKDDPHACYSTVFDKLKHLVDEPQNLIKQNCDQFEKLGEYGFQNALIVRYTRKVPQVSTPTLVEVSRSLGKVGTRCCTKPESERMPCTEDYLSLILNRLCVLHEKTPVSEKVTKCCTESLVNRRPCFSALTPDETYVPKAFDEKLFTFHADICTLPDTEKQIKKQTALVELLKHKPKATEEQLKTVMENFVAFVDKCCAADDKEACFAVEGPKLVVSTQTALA

B1: nR11 (VHH)
VHH: QVQLQESGGGLVQPGDFVRLSCAASRRASSTYAVGWFRQAPGKEREFVGRIHRGGGSTYYADSVKGRFTISRDNTQNTVYLQMNSLKPEDTAVYYCNVRSYWGQGTQVTVSS
notes: Llama HC-V tested as soluble HC-V-myc in crude culture supernatant; also called anti-RR6 HC-V fragment nR11; HC-V-myc
For B1, the binding result is given as “no binding”.

For the origin of these results see patent US20060147995A1 (UNILEVER PATENT HOLDINGS B V, published 2006).
